Measurements as given in patent US20100242127.

System: 75 aa long oligopeptide with the correct sequence of amino acids 351-399 of the α2 subunit of the GABAA receptor

recombinant p42 MAP Kinase (Erk2) (New England Biolabs), sequence (P28482 2-360): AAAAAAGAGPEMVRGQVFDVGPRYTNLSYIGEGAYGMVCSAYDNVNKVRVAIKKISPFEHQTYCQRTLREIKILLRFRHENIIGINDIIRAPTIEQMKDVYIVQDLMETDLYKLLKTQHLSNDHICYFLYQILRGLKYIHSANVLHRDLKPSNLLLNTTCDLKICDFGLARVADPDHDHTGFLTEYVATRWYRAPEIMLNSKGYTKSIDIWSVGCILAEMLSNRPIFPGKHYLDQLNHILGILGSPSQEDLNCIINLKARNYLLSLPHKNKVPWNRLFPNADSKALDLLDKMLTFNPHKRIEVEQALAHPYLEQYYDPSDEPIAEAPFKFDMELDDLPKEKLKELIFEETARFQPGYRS

## recombinant p42 MAP Kinase (Erk2) (New England Biolabs)
  average share of total phosphorylation at each of the other nine Ser/Thr residues (in vitro kinase assay, ^32P incorporation): the other nine Ser/Thr residues are phosphorylated at an average of 4% each
  incorporation of ^32P as a readout of phosphorylation (in vitro kinase assay): the construct with the wildtype sequence shows a much higher incorporation of ^32P than the second construct with the mutated T393
  share of total phosphorylation at T393 (in vitro kinase assay, ^32P incorporation): 63% of total phosphorylation occurs at the putative Erk2 site
